Source: patent US11008403 (dated 2021)
Positions count from the first letter of the chain named. Numbers in names are those of the source. Blank lines part the entries; values can stand above or below the binder they belong to.

Columns and labels:
[1] = target: T1, cyno TfR ECD (cynomolgus); assay: ELISA
T1 chain: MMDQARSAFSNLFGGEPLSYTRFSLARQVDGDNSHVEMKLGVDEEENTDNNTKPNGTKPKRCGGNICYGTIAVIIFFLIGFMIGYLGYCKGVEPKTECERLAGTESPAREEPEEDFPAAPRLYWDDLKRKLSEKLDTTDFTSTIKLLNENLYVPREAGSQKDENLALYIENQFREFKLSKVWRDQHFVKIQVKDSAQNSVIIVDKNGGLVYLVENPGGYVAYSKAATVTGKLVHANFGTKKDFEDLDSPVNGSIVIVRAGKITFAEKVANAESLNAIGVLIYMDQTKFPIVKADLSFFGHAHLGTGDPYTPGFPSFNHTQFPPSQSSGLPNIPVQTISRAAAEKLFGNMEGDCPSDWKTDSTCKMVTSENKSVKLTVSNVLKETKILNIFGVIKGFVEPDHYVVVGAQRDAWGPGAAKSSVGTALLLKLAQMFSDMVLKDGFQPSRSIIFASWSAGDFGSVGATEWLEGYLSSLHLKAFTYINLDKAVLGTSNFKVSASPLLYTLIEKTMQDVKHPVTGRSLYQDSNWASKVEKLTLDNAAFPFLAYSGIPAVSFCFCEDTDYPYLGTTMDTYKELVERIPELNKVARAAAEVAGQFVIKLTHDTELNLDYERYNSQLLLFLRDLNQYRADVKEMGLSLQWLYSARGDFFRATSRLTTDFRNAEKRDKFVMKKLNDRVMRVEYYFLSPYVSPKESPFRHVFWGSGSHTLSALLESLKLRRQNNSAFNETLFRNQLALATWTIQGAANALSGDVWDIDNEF

[2] = target: human TfR ECD (human); assay: ELISA
Sequence of human TfR ECD (human) (chain, as listed by the source): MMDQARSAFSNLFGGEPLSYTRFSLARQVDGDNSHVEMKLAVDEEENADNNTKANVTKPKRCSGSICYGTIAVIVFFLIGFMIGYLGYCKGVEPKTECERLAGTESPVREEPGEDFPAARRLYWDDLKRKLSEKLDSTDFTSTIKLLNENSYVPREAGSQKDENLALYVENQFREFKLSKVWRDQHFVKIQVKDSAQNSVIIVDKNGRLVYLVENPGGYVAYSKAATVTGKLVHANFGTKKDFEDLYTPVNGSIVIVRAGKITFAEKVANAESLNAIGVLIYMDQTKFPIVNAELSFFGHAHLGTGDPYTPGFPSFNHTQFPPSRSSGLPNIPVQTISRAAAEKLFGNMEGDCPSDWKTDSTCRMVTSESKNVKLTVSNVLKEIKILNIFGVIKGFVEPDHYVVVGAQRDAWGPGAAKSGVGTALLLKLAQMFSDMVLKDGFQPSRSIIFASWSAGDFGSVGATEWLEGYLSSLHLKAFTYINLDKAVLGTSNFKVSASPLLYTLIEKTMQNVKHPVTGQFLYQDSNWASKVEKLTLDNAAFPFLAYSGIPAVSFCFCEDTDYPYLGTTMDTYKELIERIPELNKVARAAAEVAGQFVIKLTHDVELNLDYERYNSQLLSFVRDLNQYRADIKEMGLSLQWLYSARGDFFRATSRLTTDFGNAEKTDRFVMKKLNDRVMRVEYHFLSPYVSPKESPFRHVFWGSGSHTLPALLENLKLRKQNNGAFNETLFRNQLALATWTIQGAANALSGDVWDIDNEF

B1: hu15G11.v5 HC Y27A (antibody, V domains shown)
VH: EVQLVQSGAEVKKPGASVKVSCKASGATFTSYWMHWVRQAPGQRLEWIGEINPTNGRTNYIEKFKSRATLTVDKSASTAYMELSSLRSEDTAVYYCARGTRAYHYWGQGTMVTVSS
VL: DIQMTQSPSSLSASVGDRVTITCRASDNLYSNLAWYQQKPGKSPKLLVYDATNLADGVPSRFSGSGSGTDYTLTISSLQPEDFATYYCQHFWGTPLTFGQGTKVEIK
EC50 [1]: 1470 ng/mL
EC50 [2]: 21.1 ng/mL

B4: hu15G11.v5 LC D50A (antibody, V domains shown)
VH: B1 VH with A27Y
VL: B1 VL with D50A
EC50 [1]: 0.5 ng/mL
EC50 [2]: 0.2 ng/mL

B5: hu15G11.v5 HC Y32A (antibody, V domains shown)
VH: B1 VH with A27Y, Y32A
VL: B1 VL
EC50 [1]: 1.4 ng/mL
EC50 [2]: 0.4 ng/mL

B6: hu15G11.v5 HC T30A (antibody, V domains shown)
VH: B1 VH with A27Y, T30A
VL: B1 VL
EC50 [1]: 0.9 ng/mL
EC50 [2]: 0.4 ng/mL

B7: hu15G11.v5 LC D27A (antibody, V domains shown)
VH: B1 VH with A27Y
VL: B1 VL with D27A
EC50 [1]: 0.8 ng/mL
EC50 [2]: 0.2 ng/mL

B8: hu15G11.v5 HC G26A (antibody, V domains shown)
VH: B1 VH with G26A, A27Y
VL: B1 VL
EC50 [1]: 6.1 ng/mL
EC50 [2]: 1.1 ng/mL

B9: hu15G11.v5 HC S31A (antibody, V domains shown)
VH: B1 VH with A27Y, S31A
VL: B1 VL
EC50 [1]: 0.1 ng/mL
EC50 [2]: 0.05 ng/mL

B10: hu15G11.v5 HC N52A (antibody, V domains shown)
VH: B1 VH with A27Y, N52A
VL: B1 VL
EC50 [1]: 0.9 ng/mL
EC50 [2]: 0.3 ng/mL

B12: hu15G11.v5 HC I51A (antibody, V domains shown)
VH: B1 VH with A27Y, I51A
VL: B1 VL
EC50 [1]: 0.6 ng/mL
EC50 [2]: 0.2 ng/mL

B15: hu15G11.v5 HC M34A (antibody, V domains shown)
VH: B1 VH with A27Y, M34A
VL: B1 VL
EC50 [1]: 1.1 ng/mL
EC50 [2]: 0.4 ng/mL

B16: hu15G11.v5 HC T53A (antibody, V domains shown)
VH: B1 VH with A27Y, T54A
VL: B1 VL
EC50 [1]: 0.7 ng/mL
EC50 [2]: 0.3 ng/mL

B19: hu15G11.v5 HC W33A (antibody, V domains shown)
VH: B1 VH with A27Y, W33A
VL: B1 VL
EC50 [1]: 362 ng/mL
EC50 [2]: 59.6 ng/mL

B20: hu15G11.v5 HC T28A (antibody, V domains shown)
VH: B1 VH with A27Y, T28A
VL: B1 VL
EC50 [1]: 0.8 ng/mL
EC50 [2]: 0.4 ng/mL

B21: hu15G11.v5 HC F29A (antibody, V domains shown)
VH: B1 VH with A27Y, F29A
VL: B1 VL
EC50 [1]: 12.5 ng/mL
EC50 [2]: 1.5 ng/mL

B23: hu15G11.v5 HC G49A (antibody, V domains shown)
VH: B1 VH with A27Y, G49A
VL: B1 VL
EC50 [1]: 1.1 ng/mL
EC50 [2]: 0.3 ng/mL

B24: hu15G11.v5 HC E50A (antibody, V domains shown)
VH: B1 VH with A27Y, E50A
VL: B1 VL
EC50 [1]: 410 ng/mL
EC50 [2]: 20.6 ng/mL

B28: hu15G11.v5 IgG (antibody, V domains shown)
VH: B1 VH with A27Y
VL: B1 VL
EC50 [1]: 1.8 ng/mL
EC50 [2]: 0.8 ng/mL

More lines, now with the values ahead:

EC50 [1]: 0.9 ng/mL
EC50 [2]: 0.3 ng/mL
B2: hu15G11.v5 LC L29A (antibody, V domains shown)
VH: B1 VH with A27Y
VL: B1 VL with L29A

EC50 [1]: 0.6 ng/mL
EC50 [2]: 0.3 ng/mL
B3: hu15G11.v5 LC N53A (antibody, V domains shown)
VH: B1 VH with A27Y
VL: B1 VL with N53A

EC50 [1]: 0.4 ng/mL
EC50 [2]: 0.1 ng/mL
B11: hu15G11.v5 LC R24A (antibody, V domains shown)
VH: B1 VH with A27Y
VL: B1 VL with R24A

EC50 [1]: 0.3 ng/mL
EC50 [2]: 0.2 ng/mL
B13: hu15G11.v5 LC T52A (antibody, V domains shown)
VH: B1 VH with A27Y
VL: B1 VL with T52A

EC50 [1]: 0.6 ng/mL
EC50 [2]: 0.2 ng/mL
B14: hu15G11.v5 LC S26A (antibody, V domains shown)
VH: B1 VH with A27Y
VL: B1 VL with S26A

EC50 [1]: 0.5 ng/mL
EC50 [2]: 0.3 ng/mL
B17: hu15G11.v5 LC D56A (antibody, V domains shown)
VH: B1 VH with A27Y
VL: B1 VL with D56A

EC50 [1]: 4 ng/mL
EC50 [2]: 1.6 ng/mL
B18: hu15G11.v5 LC N32A (antibody, V domains shown)
VH: B1 VH with A27Y
VL: B1 VL with N32A

EC50 [1]: 0.7 ng/mL
EC50 [2]: 0.3 ng/mL
B22: hu15G11.v5 LC S31A (antibody, V domains shown)
VH: B1 VH with A27Y
VL: B1 VL with S31A

EC50 [1]: 0.8 ng/mL
EC50 [2]: 0.2 ng/mL
B25: hu15G11.v5 LC N28A (antibody, V domains shown)
VH: B1 VH with A27Y
VL: B1 VL with N28A

EC50 [1]: 0.5 ng/mL
EC50 [2]: 0.4 ng/mL
B26: hu15G11.v5 LC L54A (antibody, V domains shown)
VH: B1 VH with A27Y
VL: B1 VL with L54A

EC50 [1]: 1 ng/mL
EC50 [2]: 0.3 ng/mL
B27: hu15G11.v5 LC Y30A (antibody, V domains shown)
VH: B1 VH with A27Y
VL: B1 VL with Y30A

EC50 [1]: 0.1 ng/mL
EC50 [2]: 0.05 ng/mL
B29: hu15G11.v5 LC L33A (antibody, V domains shown)
VH: B1 VH with A27Y
VL: B1 VL with L33A
